The values that follow come from PMC3815138, “Dynamic Interplay between the Periplasmic and Transmembrane Domains of GspL and GspM in the Type II Secretion System” (PLoS ONE, 2013).

The target in one test is T1, GST-OutC (Dickeya dadantii, UniProt Q01564 1-272).
T1 construct: OutC (GspC), type II secretion system of Dickeya dadantii; also called full-length OutC carrying a GST-tag; source: E. coli BL21(DE3), pGEX-6P-3 plasmid; immobilized on Glutathione Sepharose
Briefly: pull-down; GST-Out derivatives immobilized on Glutathione Sepharose as baits; His-OutC purified by nickel affinity as prey, incubated 1 h; 1% Triton X-100, 15°C; five washes; immunoblot. Particulars: both partners purified. A general note: A western blot detects proteins with antibodies after separation by electrophoresis.

The target in the next test is T2, GST-OutL (Dickeya dadantii, UniProt E0SLF6 1-400).
T2 construct: OutL (GspL), type II secretion system of Dickeya dadantii; also called full-length OutL carrying a GST-tag; source: E. coli BL21(DE3), pGEX-6P-3 plasmid; immobilized on Glutathione Sepharose
T2 sequence: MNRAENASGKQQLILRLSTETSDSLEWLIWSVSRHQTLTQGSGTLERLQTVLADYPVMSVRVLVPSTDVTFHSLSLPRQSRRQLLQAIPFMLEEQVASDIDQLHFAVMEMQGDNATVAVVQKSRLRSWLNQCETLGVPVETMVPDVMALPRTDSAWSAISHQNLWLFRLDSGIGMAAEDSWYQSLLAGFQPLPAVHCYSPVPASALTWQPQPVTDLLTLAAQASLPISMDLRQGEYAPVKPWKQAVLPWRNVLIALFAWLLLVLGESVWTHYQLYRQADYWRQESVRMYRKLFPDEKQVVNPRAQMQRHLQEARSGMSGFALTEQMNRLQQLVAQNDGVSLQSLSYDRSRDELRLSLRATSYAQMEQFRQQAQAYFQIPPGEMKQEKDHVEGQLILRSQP
The test is described as above. As to conditions: both partners purified.

B1: His-OutC (natural protein)
chain: not shown
notes: OutC (GspC), bitopic inner membrane component of the type II secretion system of Dickeya dadantii; also called GspC; full-length OutC; source: E. coli BL21(DE3), pET20b(+) plasmid
On to B1, for which the binding result with GST-OutC and in the test with GST-OutL was “binds” in each case.
